The record followed here is patent US20180088111A1 (published 2018).

The target in assay [1] is hPD1(25-167)-Myc-TVMV-His (human) (UniProt Q15116). Nature of the assay: SPR (Biacore T200), hPD1(25-167)-His on chip, MIH4 analyte, no PDL-1.
Assay [2] concerns the target hPD1(25-167)-3S-IG (human) (UniProt Q15116). Nature of the assay: SPR (Biacore T200), hPD1(25-167)-3S-IG on chip, MIH4 analyte, no PDL-1.
In assay [3] the target is hPD1(25-167)-Myc-TVMV-His (human) (UniProt Q15116). Nature of the assay: SPR (Biacore T200), hPD1(25-167)-His coupled to CM5 chip, MIH4 0.195-50 nM as analyte.
For assay [4] the target is unchanged. Nature of the assay: SPR (Biacore T200), hPD1(25-167)-His on chip, MIH4 analyte, in the presence of PDL-1 ('2M' [sic]).
In assay [5] the target is T1, recombinant human PDL-1 (human, UniProt Q9NZQ7 19-239).
T1 construct: Bought (R&D Systems); whole entry named; also called hPDL-1; soluble human PDL-1
Nature of the assay: SPR (ProteOn XPR36), hPD1(25-167)-His captured by His-tag on HTG chip, hPDL-1 0.125-2 µM as analyte, equilibrium analysis.
Experimental: The surface was activated by injecting nickel (II) ions at 30 μl/min for 120 s. All analyses were performed at 25° C. in a PBS-0.05% TWEEN® solution.
The surface was regenerated with 300 mM EDTA (pH 8.5) following BioRad's recommendations. The binding data were analyzed using the PROTEON MANAGER™ Software from Bio-Rad.
Soluble, human PDL-1 was injected into the mobile phase as an analyte.

T1 sequence (Q9NZQ7 19-239 limits assumed): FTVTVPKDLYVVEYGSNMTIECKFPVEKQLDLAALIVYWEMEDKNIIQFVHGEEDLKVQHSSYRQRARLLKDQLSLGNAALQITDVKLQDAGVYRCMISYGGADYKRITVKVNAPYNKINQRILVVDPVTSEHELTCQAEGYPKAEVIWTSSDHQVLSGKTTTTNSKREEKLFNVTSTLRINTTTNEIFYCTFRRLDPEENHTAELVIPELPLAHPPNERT

Take MIH4 (antibody): in assay [1], the Kd came out at 2.8 nM, the off-rate constant (koff) amounted to 0.00038 s⁻¹ and the kon was 130000 M⁻¹ s⁻¹. Also, in assay [2], the Kd worked out at 0.5 nM, the koff turned out to be 0.00024 s⁻¹ and the on-rate constant (kon) came out at 480000 M⁻¹ s⁻¹. In assay [3], this molecule registered a response level (RU) of 0.2 to 49 RU. In addition, in assay [4], the Kd stood at 2.9 nM, the koff was found to be 0.00034 s⁻¹ and the association rate constant (kon) came to 120000 M⁻¹ s⁻¹.

B1: hPD1(25-167)-Myc-TVMV-His (receptor)
chain: LDSPDRPWNPPTFSPALLVVTEGDNATFTCSFSNTSESFVLNWYRMSPSNQTDKLAAFPEDRSQPGQDCRFRVTQLPNGRDFHMSVVRARRNDSGTYLCGAISLAPKAQIKESLRAELRVTERRAEVPTAHPSPSPRPAGQFQEQKLISEEDLGSSETVRFQGHHHHHH
modifications: glycosylated (HEK293 expression)
notes: range 25-167; Expressed in HEK293-6E cells; glycosylated monomer in solution by SEC-MALS; also called hPD1(25-167)-His; hPD-1(25-167)-His
Take B1: in assay [5], the dissociation constant (Kd) was 2800 nM.
